The target in test [1] is biotinylated human FcRn (p51 subunit residues 24-297 with C-terminal Avi-tag; beta2-microglobulin residues 21-119) (human) (UniProt P55899). The experiment in a line: Biacore SPR, pH 6.0. (In general: Surface plasmon resonance follows binding to a sensor surface in real time, without labels.)
Test [2] has the same target. In words: Biacore SPR, pH 7.4, steady state.
For test [3], the target named is biotinylated human FcRn (human) (UniProt P55899). The experiment in a line: Biacore, biotin-captured hFcRn, pH 6.0.
Test [4] has the same target. The experiment in a line: Biacore, biotin-captured hFcRn, pH 8.0.
For test [5], the target named is biotinylated cynomolgus FcRn (cynomolgus) (UniProt Q8SPV9). The experiment in a line: Biacore, biotin-captured cFcRn, pH 6.0.
For test [6] the target is unchanged. The experiment in a line: Biacore, biotin-captured cFcRn, pH 7.4.
For test [7] the target is unchanged. The experiment in a line: Biacore, biotin-captured cFcRn, pH 8.0.
Test [8] addresses biotinylated human FcRn (human) (UniProt P55899). The experiment in a line: Biacore, biotin-captured hFcRn, pH 7.4, 1000 nM antibody.
Test [9] shares this target. The experiment in a line: Biacore, biotin-captured hFcRn, pH 8.0, 1000 nM antibody.
Test [10] shares this target. The experiment in a line: Biacore, biotin-captured hFcRn, pH 9.0, 1000 nM antibody.
Test [11] concerns the target biotinylated cynomolgus FcRn (cynomolgus) (UniProt Q8SPV9). The experiment in a line: Biacore, biotin-captured cFcRn, pH 7.4, 1000 nM antibody.
The target is the same in test [12]. In words: Biacore, biotin-captured cFcRn, pH 8.0, 1000 nM antibody.
For test [13] the target is unchanged. The experiment in a line: Biacore, biotin-captured cFcRn, pH 9.0, 1000 nM antibody.
Test [14] concerns the target Human CD16a (FcγRIIIa residues 17-208 with C-terminal HPC4 tag and valine at position 158) (human) (UniProt P08637). The experiment in a line: Biacore SPR, HPC4-tagged FcγRIIIa-V158 captured by anti-HPC4, pH 7.4.
The target of test [15] is biotinylated human FcRn (human) (UniProt P55899). In words: Biacore SPR, pH 7.4.
In test [16] the target is rat FcRn (rat) (UniProt P13599). In words: Biacore SPR, pH 7.4.
For test [17] the target is unchanged. The experiment in a line: Biacore SPR, pH 6.0.
Test [18] has the same target. The experiment in a line: Biacore SPR, pH 6.0. The source holds these as a separate data set.
For test [19] the target is unchanged. The experiment in a line: Biacore, pH 6.0, apparent KD.
Test [20] addresses biotinylated human FcRn (human) (UniProt P55899). The experiment in a line: Biacore, pH 7.4, steady state response.
For test [21], the target named is rat FcRn (rat) (UniProt P13599). In words: Biacore, pH 7.4, steady state response.
The target of test [22] is Human CD16a (FcγRIIIa V158) with C-terminal HPC4 tag (human) (UniProt P08637). The experiment in a line: Biacore, FcγRIIIa V158 captured, steady-state fit, apparent KD.
The target of test [23] is FcRn immobilised on the FcRn affinity column (biotinylated cynoFcRn in one experiment, biotinylated hFcRn in another). The experiment in a line: FcRn affinity chromatography, linear pH gradient; species of the immobilised FcRn not given.
Test [24] addresses biotinylated cynomolgus FcRn (cynomolgus) (UniProt Q8SPV9). The experiment in a line: Biacore, pH 7.4, steady state response.
The target of test [25] is mouse FcRn (mouse) (UniProt Q61559). In words: Biacore, pH 7.4, steady state response.
Test [26] addresses Human CD16a (FcγRIIIa V158) with C-terminal HPC4 tag (human) (UniProt P08637). The experiment in a line: Biacore, FcγRIIIa V158 captured, relative to WT of the same backbone.
Test [27] addresses biotinylated human FcRn (human) (UniProt P55899). In words: Biacore, biotin-captured hFcRn, pH 7.4.
In test [28] the target is biotinylated human FcRn (p51 subunit residues 24-297 with C-terminal Avi-tag; beta2-microglobulin residues 21-119) (human) (UniProt P55899). The experiment in a line: Biacore; inverse ratio (RU at pH 7.4 over affinity at pH 6.0).
The target is the same in test [29]. In words: Biacore; affinity at pH 6.0 (M^-1) over steady state RU at pH 7.4.
The target in test [30] is biotinylated human FcRn (human) (UniProt P55899). The experiment in a line: Biacore, pH 6.0.
Test [31] concerns the target rat FcRn (rat) (UniProt P13599). The experiment in a line: Biacore, pH 6.0.
Test [32] shares this target. The experiment in a line: Octet BLI, pH 6.0. On the technique in general: In BLI a coated tip is dipped into the sample, and binding shifts an interference pattern.
Test [33] deals with biotinylated human FcRn (human) (UniProt P55899). In words: Biacore SPR, pH 6.0.
The target is the same in test [34]. The experiment in a line: Biacore, pH 6.0, apparent KD.
The target is the same in test [35]. The experiment in a line: Biacore SPR, pH 7.4, 1000 nM antibody.
The target in test [36] is rat FcRn (rat) (UniProt P13599). In words: Biacore SPR, pH 7.4, 1000 nM antibody.
Test [37] concerns the target biotinylated human FcRn (human) (UniProt P55899). The experiment in a line: Biacore SPR, pH 6.0. The source holds these as a separate data set.
The target of test [38] is Human CD16a (FcγRIIIa V158) with C-terminal HPC4 tag (human) (UniProt P08637). The experiment in a line: Biacore SPR, FcγRIIIa-V158 captured, pH 7.4.

Chain of mouse FcRn (mouse) (Q61559 22-297 limits assumed, chain 1 of 2): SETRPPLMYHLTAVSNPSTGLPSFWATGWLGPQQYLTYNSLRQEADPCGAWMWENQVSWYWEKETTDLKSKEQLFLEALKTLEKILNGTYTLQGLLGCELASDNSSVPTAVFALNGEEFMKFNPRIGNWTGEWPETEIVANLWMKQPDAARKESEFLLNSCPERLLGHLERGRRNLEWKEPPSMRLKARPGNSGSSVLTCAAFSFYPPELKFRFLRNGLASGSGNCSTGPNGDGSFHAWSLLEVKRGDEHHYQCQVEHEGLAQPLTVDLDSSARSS
Chain of mouse FcRn (mouse) (P01887 21-119 limits assumed, chain 2 of 2, further chain): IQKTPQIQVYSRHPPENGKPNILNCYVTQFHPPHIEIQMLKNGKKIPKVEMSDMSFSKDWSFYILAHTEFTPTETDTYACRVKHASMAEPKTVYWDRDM
Chain of Human CD16a (FcγRIIIa V158) with C-terminal HPC4 tag (human) (P08637 17-208 F176V): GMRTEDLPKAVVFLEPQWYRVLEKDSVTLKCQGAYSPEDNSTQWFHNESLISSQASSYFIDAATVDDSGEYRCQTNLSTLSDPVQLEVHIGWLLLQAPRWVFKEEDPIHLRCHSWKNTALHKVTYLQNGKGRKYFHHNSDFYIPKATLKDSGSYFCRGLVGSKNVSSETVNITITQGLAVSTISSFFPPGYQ
Chain of biotinylated human FcRn (human) (P55899 24-297 limits assumed, chain 1 of 2): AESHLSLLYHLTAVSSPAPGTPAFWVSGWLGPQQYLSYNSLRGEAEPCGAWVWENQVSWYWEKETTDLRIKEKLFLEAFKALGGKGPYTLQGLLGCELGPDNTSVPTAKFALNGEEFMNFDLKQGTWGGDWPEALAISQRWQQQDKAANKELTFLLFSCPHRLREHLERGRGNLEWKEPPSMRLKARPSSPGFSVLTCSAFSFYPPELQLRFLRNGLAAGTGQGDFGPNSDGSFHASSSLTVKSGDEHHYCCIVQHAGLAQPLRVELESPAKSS
Chain of biotinylated human FcRn (human) (P61769 21-119 limits assumed, chain 2 of 2, further chain): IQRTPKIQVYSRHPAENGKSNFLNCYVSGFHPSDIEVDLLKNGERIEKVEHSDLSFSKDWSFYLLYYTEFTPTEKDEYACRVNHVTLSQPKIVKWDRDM
Chain of biotinylated human FcRn (p51 subunit residues 24-297 with C-terminal Avi-tag; beta2-microglobulin residues 21-119) (human) (P55899 24-297 limits assumed, chain 1 of 2): as the sequence (P55899 24-297 limits assumed, chain 1 of 2) above
Chain of biotinylated human FcRn (p51 subunit residues 24-297 with C-terminal Avi-tag; beta2-microglobulin residues 21-119) (human) (P61769 21-119 limits assumed, chain 2 of 2, further chain): as the sequence (P61769 21-119 limits assumed, chain 2 of 2, further chain) above
Chain of rat FcRn (rat) (P13599 23-298 limits assumed, chain 1 of 2): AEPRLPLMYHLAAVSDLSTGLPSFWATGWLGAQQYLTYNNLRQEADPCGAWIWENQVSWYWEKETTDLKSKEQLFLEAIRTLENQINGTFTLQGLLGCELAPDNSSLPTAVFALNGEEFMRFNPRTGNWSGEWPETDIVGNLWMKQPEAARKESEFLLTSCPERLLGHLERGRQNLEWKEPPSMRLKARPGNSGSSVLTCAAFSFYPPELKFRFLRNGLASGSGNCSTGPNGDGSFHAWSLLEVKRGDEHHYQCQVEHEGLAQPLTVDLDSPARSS
Chain of rat FcRn (rat) (P07151 21-119 limits assumed, chain 2 of 2, further chain): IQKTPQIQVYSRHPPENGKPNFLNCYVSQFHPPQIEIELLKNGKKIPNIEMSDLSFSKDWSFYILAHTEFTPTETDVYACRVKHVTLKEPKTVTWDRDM
Chain of Human CD16a (FcγRIIIa residues 17-208 with C-terminal HPC4 tag and valine at position 158) (human) (P08637 17-208 F176V): as the sequence (P08637 17-208 F176V) above

On to “mAb1 YDWY (M252Y/T256D/T307W/N434Y) (antibody)”, for which the Ka in test [1] was 2.66e+08 M⁻¹. In test [2], this substance came in with a Steady State Binding, pH 7.4 (RU) of 88.5 RU. The Kd was 5.2 nM in test [3]; 700 nM in [4]; 3.2 nM in [5]; 49 nM in test [6]; 1500 nM in [7]. For the same substance, the Steady State RU in test [8] turned out to be 166 RU; in test [9], 281 RU; in test [10] it was 10.4 RU; in test [11] it was 178 RU; in test [12], 354 RU; in [13], 16 RU. Besides, the FcγRIIIa Binding Steady State RU in test [14] came out at 136 RU.

Turning to mAb1 YDTN (M252Y/T256D) (antibody), the Steady State RU was 9.7 RU in test [15], 56 RU in test [16], 9.7 RU in test [20] and 56 RU in [21]. For the same substance, the Kd in [17] was determined as 5.9 nM; in test [18], 5.86 nM; in [19], 5.9 nM; in test [22], 1060 nM. This substance gave a Steady State Binding, pH 7.4 (RU) in test [2] of 9.7 RU. Further, in test [23], the FcRn affinity column elution pH was found to be 8.29 pH.

As to mAb2 DQ (T256D/T307Q) (antibody), the Steady State RU in test [24] is 11 RU; in test [20], 14 RU; in test [25], 248 RU. For the same substance, the FcγRIIIa V158 Affinity Fold Change (fold relative to WT) in [26] amounted to 1.05.

In turn, “mAb1 MDWY (T256D/T307W/N434Y) (antibody)” came in with a Ka in test [1] of 8.4e+07 M⁻¹. In test [2], this substance returned a Steady State Binding, pH 7.4 (RU) of 59 RU. For the same substance, the Kd in test [3] came to 18 nM; in test [27], 101 nM; in [4], 2700 nM; in [5], 15 nM; in test [6] it was 85 nM; in [7], 1200 nM. Besides, the koff in test [3] stood at 0.0123 s⁻¹; in [27], 0.05 s⁻¹; in [4], 0.54 s⁻¹; in test [5], 0.0103 s⁻¹; in test [6] it was 0.029 s⁻¹; in test [7], 0.69 s⁻¹. Also, the kon in [3] came to 700000 M⁻¹ s⁻¹; in test [27], 500000 M⁻¹ s⁻¹; in [4], 260000 M⁻¹ s⁻¹; in [5], 700000 M⁻¹ s⁻¹; in test [6], 350000 M⁻¹ s⁻¹; in test [7] it was 620000 M⁻¹ s⁻¹. Besides, the Ratio (pH 6.0/pH 7.4) was found to be 7.02e-07 in [28] and 1.42e+06 in test [29]. Besides, the Steady State RU turned out to be 125 RU in test [8]; 145 RU in [9]; 0.7 RU in test [10]; 165 RU in [11]; 197 RU in test [12]; 1.3 RU in test [13]. In addition, in test [14], the FcγRIIIa Binding Steady State RU was 211 RU.

On to mAb1 T307E (antibody), for which the koff stood at 0.3 s⁻¹ in test [30]; 0.006 s⁻¹ in test [31]; 0.00329 s⁻¹ in test [32]; 0.298 s⁻¹ in [33]; 0.00603 s⁻¹ in test [18]. For the same substance, the on-rate (kon) in test [30] is 44000 M⁻¹ s⁻¹; in [31], 56000 M⁻¹ s⁻¹; in test [33], 43700 M⁻¹ s⁻¹; in [18], 55500 M⁻¹ s⁻¹. Moreover, the Kd in [33] stood at 8130 nM; in test [18], 141 nM; in [34], 8130 nM; in test [19], 141 nM. The Steady State RU turned out to be 5.7 RU in [35] and 21.5 RU in test [36]. Moreover, the FcRn affinity column elution pH in test [23] is 7.58 pH.

As to mAb2 DW (T256D/T307W) (antibody), the values for the Steady State RU in [24], in test [20] and in test [25] were 15 RU, 18 RU and 257 RU, respectively. For the same substance, the FcγRIIIa V158 Affinity Fold Change (fold relative to WT) in test [26] was 1.15.

In the case of mAb1 MDQN (T256D/T307Q) (antibody), the koff worked out at 0.087 s⁻¹ in test [30]; 0.0013 s⁻¹ in test [31]; 0.087 s⁻¹ in [37]; 0.0872 s⁻¹ in test [33]; 0.00127 s⁻¹ in test [18]. Further, the on-rate (kon) is 380000 M⁻¹ s⁻¹ in test [30]; 13000 M⁻¹ s⁻¹ in [31]; 380000 M⁻¹ s⁻¹ in [37]; 376000 M⁻¹ s⁻¹ in test [33]; 133000 M⁻¹ s⁻¹ in [18]. Moreover, the Steady State RU in test [15] is 10.7 RU; in test [16], 39.1 RU; in test [20] it was 10.7 RU; in [21], 39.1 RU. The Kd came to 9.5 nM in test [17]; 232 nM in [33]; 9.54 nM in test [18]; 232 nM in test [34]; 9.5 nM in test [19]; 600 nM in test [22]. Moreover, the Ka in [1] turned out to be 4.31e+06 M⁻¹. Also, the Steady State Binding, pH 7.4 (RU) in test [2] is 10.7 RU. Further, in [38], the FcγRIIIa V158 affinity fold change relative to WT was 0.73 fold. Also, the Ratio (pH 6.0/pH 7.4) in [29] turned out to be 403000. The substance further registered a FcRn affinity column elution pH in test [23] of 7.92 pH.

Take mAb2 YD (M252Y/T256D) (antibody): the values for the Steady State RU in test [24], in test [20] and in [25] were 22 RU, 27 RU and 394 RU, respectively. Moreover, in test [26], the FcγRIIIa V158 Affinity Fold Change (fold relative to WT) came to 0.58.

With mAb2 LS (M428L/N434S) (antibody), the Steady State RU in [24] came out at 38 RU; in test [20], 44 RU; in test [25] it was 285 RU. In [26], the FcγRIIIa V158 Affinity Fold Change (fold relative to WT) was determined as 1.23.

With mAb1 AAA (T307A/E380A/N434A) (antibody), the koff in test [31] amounted to 0.0117 s⁻¹; in test [32], 0.00377 s⁻¹; in [18], 0.0117 s⁻¹. Also, the kon in test [31] and in [18] was 157000 M⁻¹ s⁻¹ in each case. Also, the results for the Kd in test [18], in [19] and in test [22] were 77 nM, 77 nM and 450 nM, respectively. The Steady State RU in test [36] and in test [21] was 23.6 RU throughout. Also, the FcRn affinity column elution pH in test [23] is 7.94 pH.

The term koff denotes a measure of how fast the partners let go of each other. Low readings indicate slow dissociation, high ones fast dissociation. A word on the kon: it is the rate constant with which the complex forms. Read a low kon as slow association.

The record behind these values is US20210024620A1.
